B1: LIPY: M. tuberculosis long-chain TG hydrolase, HSL family lipase, expressed His-tagged in E. coli (protein, listed as Mycobacterium tuberculosis)
chain: EYVVAIHGGAFILPPSIFHWLNYSVTAYQTGATVQVPIYPLVQEGGTAGTVVPAMAGLSNVSVVGDSAGGNLALAAAQYMVSQGNPVPSSMVLLSPWLDVGTWQISQAWAGNLAVNLPPTYVYSGSLDPLAQQAVVLEHTAVVQGAPFSFVLAPWQIHDWILLTPWGLLSWPQINQQL
modifications: His6 tag
notes: M. tuberculosis long-chain TG hydrolase, HSL family lipase, expressed His-tagged in E. coli
B2: LIPV: M. tuberculosis putative lipase/esterase gene product expressed in E. coli (protein, UniProt L0TC47 1-261, looked up)
Lipase LipV: MIIDLHVQRYGPSGPARVLTIHGVTEHGRIWHRLAHHLPEIPIAAPDLLGHGRSPWAAPWTIDANVSALAALLDNQGDGPVVVVGHSFGGAVAMHLAAARPDQVAALVLLDPAVALDGSRVREVVDAMLASPDYLDPAEARAEKATGAWADVDPPVLDAELDEHLVALPNGRYGWRISLPAMVCYWSELARDIVLPPVGTATTLVRAVRASPAYVSDQLLAALDKRLGADFELLDFDCGHMVPQAKPTEVAAVIRSRLGPR
B3: LIPU: M. tuberculosis putative lipase/esterase gene product expressed in E. coli (protein, UniProt O53424 1-297, looked up)
Esterase LipU: MAVRPVLAVGSYLPHAPWPWGVIDQAARVLLPASTTVRAAVSLPNASAQLVRASGVLPADGTRRAVLYLHGGAFLTCGANSHGRLVELLSKFADSPVLVVDYRLIPKHSIGMALDDCHDGYRWLRLLGYEPEQIVLAGDSAGGYLALALAQRLQEVGEEPAALVAISPLLQLAKEHKQAHPNIKTDAMFPARAFDALDALVASAAARNQVDGEPEELYEPLEHITPGLPRTLIHVSGSEVLLHDAQLAAAKLAAAGVPAEVRVWPGQVHDFQVAASMLPEAIRSLRQIGEYIREATG
modifications: expressed in E. coli

How the values were obtained:
[1] = assay type: biochemical, M. tuberculosis; settings: pH 8

Row | Molecule | TG hydrolase activity [1] | Rate of [14C]diolein hydrolysis (20 mM diolein emulsion) | Storage stability (60 days at 4° C. and 4 cycles of freezing at −20° C. followed by thawing) | Temperature stability of lipase activity (held at 50° C. or higher for 15 min prior to assay) | Fatty acid release from other substrates (phosphatidylcholine, phosphatidyl ethanolamine or hexadecyl palmitate, data not shown) | Km (read-out: apparent Km, triolein, double-reciprocal plot) | Vmax (triolein, double-reciprocal plot)
1 | B1 | 48.6 nmol/mg/min | 316.8 ± 9.0 nmol/mg/min | retained nearly all of its original activity | dropped off sharply | did not show any fatty acid release | 7.57 mM | 653.3 nmol/mg/min
2 | B2 | 0 nmol/mg/min |  |  |  |  |  | 
3 | B3 | 0 nmol/mg/min |  |  |  |  |  | 
